In patent publication US20180244725:

Biological target: T1, R5 peptide
T1 chain: SSKKSGSYSGSKGSKRRIL

Protein	enzymatic modification of R5 (Lipidation)	methylation of R5 (LC-MS time course)	further results
Thermospermine synthase ACL5 (protein) MGEAVEVMFGNGFPEIHKATSPTQTLHSNQQDCHWYEETIDDDLKWSFALNSVLHQGTSEYQDIALLDTKRFGKVLVIDGKMQSAERDEFIYHECLIHPALLFHPNPKTVFIMGGGEGSAAREILKHTTIEKVVMCDIDQEVVDFCRRFLTVNSDAFCNKKLELVIKDAKAELEKREEKFDIIVGDLADPVEGGPCYQLYTKSFYQNILKPKLSPNGIFVTQAGPAGIFTHKEVFTSIYNTMKQVFKYVKAYTAHVPSFADTWGWVMASDHEFDVEVDEMDRRIEERVNGELMYLNAPSFVSAATLNKTISLALEKETEVYSEENARFIHGHGVAYRHI	–	–	propylamination of R5 (LC-MS time course): the incorporation of one thermospermine molecule into R5
LipB (protein) MYQDKILVRQLGLQPYEPISQAMHEFTDTRDDSTLDEIWLVEHYPVFTQGQAGKAEHILMPGDIPVIQSDRGGQVTYHGPGQQVMYVLLNLKRRKLGVRELVTLLEQTVVNTLAELGIEAHPRADAPGVYVGEKKICSLGLRIRRGCSFHGLALNVNMDLSPFLRINPCGYAGMEMAKISQWKPEATTNNIAPRLLENILALLNNPDFEYITA	resulted in no modifications	–	–
N-myrisotyltransferase 1 (NMT1) (protein) MADESETAVKPPAPPLPQMMEGNGNGHEHCSDCENEEDNSYNRGGLSPANDTGAKKKKKKQKKKKEKGSETDSAQDQPVKMNSLPAERIQEIQKAIELFSVGQGPAKTMEEASKRSYQFWDTQPVPKLGEVVNTHGPVEPDKDNIRQEPYTLPQGFTWDALDLGDRGVLKELYTLLNENYVEDDDNMFRFDYSPEFLLWALRPPGWLPQWHCGVRVVSSRKLVGFISAIPANIHIYDTEKKMVEINFLCVHKKLRSKRVAPVLIREITRRVHLEGIFQAVYTAGVVLPKPVGTCRYWHRSLNPRKLIEVKFSHLSRNMTMQRTMKLYRLPETPKTAGLRPMETKDIPVVHQLLTRYLKQFHLTPVMSQEEVEHWFYPQENIIDTFVVENANGEVTDFLSFYTLPSTIMNHPTHKSLKAAYSFYNVHTQTPLLDLMSDALVLAKMKGFDVFNALDLMENKTFLEKLKFGIGDGNLQYYLYNWKCPSMGAEKVGLVLQ	–	–	myristoylation of R5 (LC-MS time course): A time course showing the incorporation of one myristoyl group was determined by LC-MS
lysine methyltransferase SETD7 (SET7/9) (protein) MDSDDEMVEEAVEGHLDDDGLPHGFCTVTYSSTDRFEGNFVHGEKNGRGKFFFFDGSTLEGYYVDDALQGQGVYTYEDGGVLQGTYVDGELNGPAQEYDTDGRLIFKGQYKDNIRHGVCWIYYPDGGSLVGEVNEDGEMTGEKIAYVYPDERTALYGKFIDGEMIEGKLATLMSTEEGRPHFELMPGNSVYHFDKSTSSCISTNALLPDPYESERVYVAESLISSAGEGLFSKVAVGPNTVMSFYNGVRITHQEVDSRDWALNGNTLSLDEETVIDVPEPYNHVSKYCASLGHKANHSFTPNCIYDMFVHPRFGPIKCIRTLRAVEADEELTVAYGYDHSPPGKSGPEAPEWYQVELKAFQATQQK	–	A time course showing the incorporation of zero to 16 methyl groups into R5	–
SET7/9 Y305F (protein) MDSDDEMVEEAVEGHLDDDGLPHGFCTVTYSSTDRFEGNFVHGEKNGRGKFFFFDGSTLEGYYVDDALQGQGVYTYEDGGVLQGTYVDGELNGPAQEYDTDGRLIFKGQYKDNIRHGVCWIYYPDGGSLVGEVNEDGEMTGEKIAYVYPDERTALYGKFIDGEMIEGKLATLMSTEEGRPHFELMPGNSVYHFDKSTSSCISTNALLPDPYESERVYVAESLISSAGEGLFSKVAVGPNTVMSFYNGVRITHQEVDSRDWALNGNTLSLDEETVIDVPEPYNHVSKYCASLGHKANHSFTPNCIFDMFVHPRFGPIKCIRTLRAVEADEELTVAYGYDHSPPGKSGPEAPEWYQVELKAFQATQQK	–	A time course showing the incorporation of zero to 16 methyl groups into R5	–
NMT2 (protein) MAEDSESAASQQSLELDDQDTCGIDGDNEEETEHAKGSPGGYLGAKKKKKKQKRKKEKPNSGGTKSDSASDSQEIKIQQPSKNPSVPMQKLQDIQRAMELLSACQGPARNIDEAAKHRYQFWDTQPVPKLDEVITSHGAIEPDKDNVRQEPYSLPQGFMWDTLDLSDAEVLKELYTLLNENYVEDDDNMFRFDYSPEFLLWALRPPGWLLQWHCGVRVSSNKKLVGFISAIPANIRIYDSVKKMVEINFLCVHKKLRSKRVAPVLIREITRRVNLEGIFQAVYTAGVVLPKPIATCRYWHRSLNPRKLVEVKFSHLSRNMTLQRTMKLYRLPDVTKTSGLRPMEPKDIKSVRELINTYLKQFHLAPVMDEEEVAHWFLPREHIIDTFVVESPNGKLTDFLSFYTLPSTVMHHPAHKSLKAAYSFYNIHTETPLLDLMSDALILAKSKGFDVFNALDLMENKTFLEKLKFGIGDGNLQYYLYNWRCPGTDSEKVGLVLQ	resulted in no modifications	–	–
